In patent US20210221891A1 (NANJING LEGEND BIOTECH, published 2021):
Changes are numbered by the printed parent chain. One block for each binder: values may come before it.

Biological target: human PD-L1 expressed on CHO-K1 cells (human, UniProt Q9NZQ7 19-290)
Assay: cell-based or functional assay

human PD-L1 expressed on CHO-K1 cells, sequence (Q9NZQ7 19-290): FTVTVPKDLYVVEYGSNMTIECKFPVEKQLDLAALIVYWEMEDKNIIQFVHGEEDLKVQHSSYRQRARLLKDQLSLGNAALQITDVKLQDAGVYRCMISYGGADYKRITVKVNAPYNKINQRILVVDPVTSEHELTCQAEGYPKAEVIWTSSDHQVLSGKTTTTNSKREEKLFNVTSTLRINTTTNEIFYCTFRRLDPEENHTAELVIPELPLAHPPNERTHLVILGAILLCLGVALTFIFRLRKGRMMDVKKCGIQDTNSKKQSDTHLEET

- EC50 of PD-L1- based blockade assay for sdAbs: 25.2 nM
B1: AS11948 sdAb (VHH)
VHH: EVQLVESGGGLVQAGDSLRLSCVASGRTFVTYGMGWFRQAPGKEREFVAAINWSGSMTSYGDSVKGRFAISRDNAKNTVYLQMNSLKPEDTAVYYCAAALGAVVYTTREPYTYWGRGTQVTVSS

- EC50 of PD-L1- based blockade assay for sdAbs: 17.2 nM
B5: AS06730 sdAb (VHH)
VHH: QVQLVESGGGLVQAGGSLRLSCAASGRTFITYAIGWFRQAPGKEREFVSAINWSGSMTSYADSVKGRFTISRDNAKNTVYLQMNGLKPEDTAVYYCAAHRGAIAPIAQSVYTNWGQGTQVTVSS

- EC50 of PD-L1- based blockade assay for sdAbs: 36.5 nM
B6: AS06791 sdAb (VHH)
VHH: B5 VHH with S49T, M83I, P88S, I106M, A107T, T112D, N113Y

- EC50 of PD-L1- based blockade assay for sdAbs: 77.2 nM
B7: AS11947 sdAb (VHH)
VHH: DVQLVESGGGLVQAGDSLRLTCSASGRTFISYAVGWFRQAPGTEREFVAGIRWNGISTDYTDSVKGRFTISRDNAKNTVYLQMNSLKPEDTAIYYCAAHRTIATIPNKYEYDHWGQGTQVTVSS

- EC50 of PD-L1- based blockade assay for sdAbs: 20.1 nM
B8: AS06778 sdAb (VHH)
VHH: QVQLVESGGGLVQAGGSLKLSCAASGRTFITYAMGWFRQAPGKERELVAAISWSGSSTYSADSVKGRFTISRDNAKNTVYLQMNSLKPEDTAVYYCAAEVSARTGEHLPKLMGDYWGQGTQVTVSS

- EC50 of PD-L1- based blockade assay for sdAbs: 96.2 nM
B11: AS12003 sdAb (VHH)
VHH: B7 VHH with D1E, T21S, S23A, I30L, N54S, I56G, T61A, I93V, I105V, H113T

- EC50 of PD-L1- based blockade assay for sdAbs: 75.5 nM
B14: AS06775 sdAb (VHH)
VHH: QVQLVESGGGLVQAGDSLRLSCAASGRTFLTLAVGWFRQAPGTEREFVAGIRWSGSGTDYADSVKGRFTISRDNAKNTVYLQMNSLKPEDTAVYYCAAHTTIATIPEKYEYEYWGRGTQVTVSS

More lines, now with the values behind:

B2: AS06686 sdAb (VHH)
VHH: AVQLVESGGGLVQAGDSLRLACAASGRTFLTYALGWFRQAPGKEREFVAGVSWSGSSTKYADSVKGRFTISRDNAKNTVYMQMNSLKPEDTAVYYCAAQISAIVPISAHEYQYWGQGTQVTVSS
- EC50 of PD-L1- based blockade assay for sdAbs: 352 nM

B3: AS06628 sdAb (VHH)
VHH: B5 VHH with S49T, A75N, T78M, G85S, I106M, A107T, T112D, N113Y
- EC50 of PD-L1- based blockade assay for sdAbs: 24.2 nM

B4: AS06703 sdAb (VHH)
VHH: EVQLVESGGGLVRAGGSLRLSCAASGRTFITYAIGWFRQAPGKEREFVTAINWSGSMTSYADSVKGRFTISRDNNKNTVYLQMNSLKPEDTALYYCAAHLGAIAPMSQSVYDYWGQGTQVTVSS
- EC50 of PD-L1- based blockade assay for sdAbs: 15 nM

B9: AS06750 sdAb (VHH)
VHH: B14 VHH with Q1A, A23T, L32Y, S56G, G57Y, T100R, R116Q
- EC50 of PD-L1- based blockade assay for sdAbs: 33.6 nM

B10: AS06682 sdAb (VHH)
VHH: B14 VHH with Q1A, A23T, T31S, L32Y, S56E, G57H, D62A, E107K, R116Q
- EC50 of PD-L1- based blockade assay for sdAbs: 42 nM

B12: AS06618 sdAb (VHH)
VHH: EVQLVESGGRLVRAGDSLRLSCAASGRTFLSYAVGWFRQAPGTEREFVAGIRWSGGYTDYAEAVKGRFTISRDNAKNTVYLQMNSLKPEDTAVYYCAAHRTIATIPEKYEYEYWGQGTQVTVSS
- EC50 of PD-L1- based blockade assay for sdAbs: 44.5 nM

B13: AS06617 sdAb (VHH)
VHH: DVQLVESGGGLVQAGDSLRLSCAASGRTFISYAVGWFRQAPGSEREFVAGIRWNGIHTDYADSVKGRFTISRDNAKNTVTLEMTSLKPEDTAVYYCAAHRTIATIPEKYEYEYWGQGTQVTVSS
- EC50 of PD-L1- based blockade assay for sdAbs: 63.8 nM
